US20100260765A1 (AstraZeneca / MedImmune, published 2010)

Legend:
Assay in all cases: cell-based or functional assay
[1] = biological target: T1, KDR (human, UniProt P35968 20-1356)
[2] = biological target: T1, KDR; remark: listed apart in the source
[3] = biological target: T1, KDR; remark: listed apart in the source
[4] = biological target: T1, KDR; remark: listed apart in the source
[5] = biological target: human KDR on cells (human, UniProt P35968 20-1356)
[6] = biological target: T1, KDR; remark: listed apart in the source

Chain of human KDR on cells (P35968 20-1356): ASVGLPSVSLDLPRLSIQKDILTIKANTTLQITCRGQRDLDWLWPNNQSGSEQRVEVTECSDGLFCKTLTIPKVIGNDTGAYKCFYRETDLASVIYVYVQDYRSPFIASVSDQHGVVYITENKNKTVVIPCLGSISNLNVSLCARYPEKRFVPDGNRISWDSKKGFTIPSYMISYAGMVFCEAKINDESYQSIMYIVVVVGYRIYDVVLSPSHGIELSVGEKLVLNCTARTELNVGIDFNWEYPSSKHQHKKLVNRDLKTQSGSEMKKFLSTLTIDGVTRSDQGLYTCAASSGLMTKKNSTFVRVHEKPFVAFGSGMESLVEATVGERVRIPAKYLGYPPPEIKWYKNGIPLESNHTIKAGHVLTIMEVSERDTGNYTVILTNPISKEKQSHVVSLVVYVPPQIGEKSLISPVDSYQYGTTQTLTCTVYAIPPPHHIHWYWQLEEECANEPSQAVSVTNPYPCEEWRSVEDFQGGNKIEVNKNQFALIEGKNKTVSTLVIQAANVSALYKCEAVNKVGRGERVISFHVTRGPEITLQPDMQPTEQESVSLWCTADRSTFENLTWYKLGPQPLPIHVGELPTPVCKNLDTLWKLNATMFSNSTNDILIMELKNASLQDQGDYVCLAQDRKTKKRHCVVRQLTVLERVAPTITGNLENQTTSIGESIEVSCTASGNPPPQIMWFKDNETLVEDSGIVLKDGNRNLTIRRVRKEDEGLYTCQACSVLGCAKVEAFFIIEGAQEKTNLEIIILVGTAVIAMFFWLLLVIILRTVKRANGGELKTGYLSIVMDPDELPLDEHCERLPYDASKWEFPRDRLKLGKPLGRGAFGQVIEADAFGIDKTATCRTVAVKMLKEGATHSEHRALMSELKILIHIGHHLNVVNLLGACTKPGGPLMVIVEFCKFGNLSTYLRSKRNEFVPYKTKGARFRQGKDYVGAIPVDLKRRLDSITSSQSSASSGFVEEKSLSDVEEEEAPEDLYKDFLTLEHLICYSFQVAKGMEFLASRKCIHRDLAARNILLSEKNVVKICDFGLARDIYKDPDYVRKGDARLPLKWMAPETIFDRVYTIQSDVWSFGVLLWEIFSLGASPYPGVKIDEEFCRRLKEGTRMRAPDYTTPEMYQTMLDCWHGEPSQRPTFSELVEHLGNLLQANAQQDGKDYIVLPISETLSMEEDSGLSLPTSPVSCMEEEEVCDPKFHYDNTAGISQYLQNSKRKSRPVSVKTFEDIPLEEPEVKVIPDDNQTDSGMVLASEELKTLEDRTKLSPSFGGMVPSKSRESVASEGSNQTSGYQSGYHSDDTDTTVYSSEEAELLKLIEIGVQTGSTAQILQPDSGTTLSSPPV
T1 sequence (P35968 20-1356): as above

Row | Binder | % Inhibition (Average) of VEGF-C-mediated KDR activity, antibody 1 nM [5] [%] | % Inhibition (Average) of VEGF-C-mediated KDR activity, antibody 10 nM [5] [%] | % Inhibition (Average) of VEGF-C-mediated KDR activity, antibody 100 nM [5] [%] | % Inhibition (N = 1) of VEGF-C-mediated KDR activity, antibody 1 nM [5] [%] | % Inhibition (N = 1) of VEGF-C-mediated KDR activity, antibody 10 nM [5] [%] | % Inhibition (N = 1) of VEGF-C-mediated KDR activity, antibody 100 nM [5] [%] | % Inhibition (N = 2) of VEGF-C-mediated KDR activity, antibody 1 nM [5] [%] | % Inhibition (N = 2) of VEGF-C-mediated KDR activity, antibody 10 nM [5] [%] | % Inhibition (N = 2) of VEGF-C-mediated KDR activity, antibody 100 nM [5] [%] | further results
1 | 32F4 (antibody, V domains shown) VH: QLQLQESGPGLVKPSGTLSLSCTVSGGSISSRSDYWGWIRQPPGKGLEWIGTIYYSGNTFYNPSLKSRVTISVDTSKKQFSLKLSSVTAADTAVYYCARQQLVLYYFDYWGQGTLVTVSS VL: EIVLTQSPGTLSLSPGERATLSCRTSQSVSSSYLAWYQQKPGQAPRLLIYGASSRATGVPDRFSGSGSGTDFSLTISRLEPEDFAVYYCQQYGSSPPLTFGGGTKVEIK [32F4, listing 1 of 2 here] | – | – | – | – | – | – | – | – | – | Activity at 133 nM (% Inhibition), 24-hour Pre-incubation at 37° C., Average [1]: 22%; Activity at 133 nM (% Inhibition), 24-hour Pre-incubation at 37° C., N = 1 [1]: 25%; Activity at 133 nM (% Inhibition), 24-hour Pre-incubation at 37° C., N = 2 [1]: 18%; Activity at 133 nM (% Inhibition), 1-hour Pre-incubation at 4° C., Average [2]: 64%; Activity at 133 nM (% Inhibition), 1-hour Pre-incubation at 4° C., N = 1 [2]: 60%; Activity at 133 nM (% Inhibition), 1-hour Pre-incubation at 4° C., N = 2 [2]: 68%; Activity at 133 nM Antibody Concentration (% Survival Inhibition), Average [3]: 73%; Activity at 133 nM Antibody Concentration (% Survival Inhibition), N = 1 [3]: 88%; Activity at 133 nM Antibody Concentration (% Survival Inhibition), N = 2 [3]: 58%; % Inhibition of VEGF165-mediated 6-keto Prostaglandin F1α release at 133 nM Antibody Concentration, Average [4]: 73%; % Inhibition of VEGF165-mediated 6-keto Prostaglandin F1α release at 133 nM Antibody Concentration, N = 1 [4]: 69%; % Inhibition of VEGF165-mediated 6-keto Prostaglandin F1α release at 133 nM Antibody Concentration, N = 2 [4]: 76%
2 | 32F4 (antibody, V domains shown) VH: QLQLQESGPGLVKPSGTLSLSCTVSGGSISSRSDYWGWIRQPPGKGLEWIGTIYYSGNTFYNPSLKSRVTISVDTSKKQFSLKLSSVTAADTAVYYCARQQLVLYYFDYWGQGTLVTVSS VL: EIVLTQSPGTLSLSPGERATLSCRTSQSVSSSYLAWYQQKPGQAPRLLIYGASSRATGVPDRFSGSGSGTDFSLTISRLEPEDFAVYYCQQYGSSPPLTFGGGTKVEIK [32F4, listing 2 of 2 here] | 43 | 77 | 81 | 55 | 76 | 75 | 31 | 79 | 86 | –
3 | 29D4 (antibody, V domains shown) VH: QLQLQESGPGLVKPSETLSLTCTVSGGSISSRSNYWGWIRQPPGKGLEWIGTIYYSGHTYYNPSLKSRVSISVDTSKNQFSLKLSSVTATDTALYYCARQQLVLYYFEYWGQGTLVTVSS VL: not shown | 34 | 71 | 76 | 42 | 71 | 74 | 25 | 72 | 79 | –
4 | 31E11 (antibody, V domains shown) VH: QVQLVESGGGLVKPGGSLRLSCAASGFTFSDYYMSWIRQAPGKGLEWVSYISISGSTIYYADSVKGRFTISRDNAKNSLYLQMNSLRAEDTAVYYCARDDFWSGYYFNWFDPWGQGTLVTVSS VL: DIQMTQSPSSLSASVGDRVTITCRANQTISTFLNWYQQNPGKAPKLLIYAASSLQSGVPSRFSGSGSGTDFTLTISSLQPEDFATYYCQQTYIIPLTFGGGTKVEIK | 40 | 83 | 84 | 47 | 81 | 84 | 33 | 85 | 84 | –
5 | 22B8 (antibody, V domains shown) VH: QLQLQESGPGLVKPSETLSLTCTVSGGSISSRYYYWGWVRQPPGKGLEWIGTIYYSGHTYYNPSLKTRVTISVDTSKNQFSLKLISVTAADTAVYYCATQQLVLYYFDFWGQGTLVTVSS VL: EIVLTQSPGTLSLSPGERAALSCRASQSISSSYLAWYQQRPGQAPRLLIYGASSRATGIPDRFNGSGSGTDFTLTISRLEPEDFAVYYCQQFGSSITFGQGTRLEIK | 27 | 65 | 74 | 38 | 74 | 71 | 17 | 56 | 77 | –
6 | 27A3 (antibody, V domains shown) VH: QLQLQESGPGLVKPSETLSLTCTVSGGSISSRSDYWGWIRQPPGKGLEWIGTIYYSGDTYYNPSLKSRVTISVDTSKNQFSLKLSSVTAADTAVYYCARQQLVLYYFDYWGQGTLVTVSS VL: EIVLTQSPGTLSLSPGERATLSCRASQSVSSSYLAWYQQKPGQAPRLLIYATSNRATGIPDRFSGSGSGTDFTLTISRLEPEDFAVYYCQQHGSSPPLTFGGGTKVEIK | 39 | 78 | 75 | 40 | 75 | 73 | 38 | 80 | 77 | –
7 | 33D5 (antibody, V domains shown) VH: QVQLVQSGAEVKKPGASVKVSCKASGYTFGSYDINWVRQATGQGLEWMGWMNPNSGNTGYAQKFQGRVTLTRNTSIRTVYMELSSLRSEDTAVYYCARGGYSNLGWFDPWGQGSLVTVSS VL: DIQMTQSPSSVSVSVGDRVTITCRASQGISSWLAWYQQKPGKAPKLLIYAASSLQSGVPSRFSGSGSGTDFTLTISSLQPEDFATYYCQQANSFPFTFGPGTKVDIK | – | – | – | – | – | – | – | – | – | Activity at 133 nM (% Inhibition), 24-hour Pre-incubation at 37° C., Average [1]: -15%; Activity at 133 nM (% Inhibition), 24-hour Pre-incubation at 37° C., N = 1 [1]: 8%; Activity at 133 nM (% Inhibition), 24-hour Pre-incubation at 37° C., N = 2 [1]: -38%; Activity at 133 nM (% Inhibition), 1-hour Pre-incubation at 4° C., Average [2]: 49%; Activity at 133 nM (% Inhibition), 1-hour Pre-incubation at 4° C., N = 1 [2]: 39%; Activity at 133 nM (% Inhibition), 1-hour Pre-incubation at 4° C., N = 2 [2]: 60%; Activity at 133 nM Antibody Concentration (% Survival Inhibition), Average [3]: 5%; Activity at 133 nM Antibody Concentration (% Survival Inhibition), N = 1 [3]: 13%; Activity at 133 nM Antibody Concentration (% Survival Inhibition), N = 2 [3]: -2%; % of Max VEGF KDR pTyr Activity (at 133 nM antibody concentration), Average [6]: 17%; % of Max VEGF KDR pTyr Activity (at 133 nM antibody concentration), N = 1 [6]: 20%; % of Max VEGF KDR pTyr Activity (at 133 nM antibody concentration), N = 2 [6]: 15%; % Inhibition of VEGF165-mediated 6-keto Prostaglandin F1α release at 133 nM Antibody Concentration, Average [4]: 36%; % Inhibition of VEGF165-mediated 6-keto Prostaglandin F1α release at 133 nM Antibody Concentration, N = 1 [4]: 15%; % Inhibition of VEGF165-mediated 6-keto Prostaglandin F1α release at 133 nM Antibody Concentration, N = 2 [4]: 57%
8 | 21H6 (antibody, V domains shown) VH: QVQLVESGGGLVKPGGSLRLSCAASGFTFSDYYMSWIRQAPGKGLEWVSYISNSGITIYYADSVKGRFTISRDNAKNSLYLQMNSLRAGDTAVYYCAREEWYSSRWYRNFDYWGQGTLVTVSS VL: DIQMTQFSSSLSASVGDRVTITCRASQSISRYLNWYQQKPGKAPKLLIYAASSLQSGVPSRFNGSGSGTDFTLTISSLQPEDFATYYCQQSYSAPLTFGGGTKVEIK | 28 | 84 | 94 | 23 | 78 | 93 | 34 | 90 | 95 | –

The next lines start with results.

Row | % Inhibition (Average) of VEGF-C-mediated KDR activity, antibody 1 nM [5] [%] | % Inhibition (Average) of VEGF-C-mediated KDR activity, antibody 10 nM [5] [%] | % Inhibition (Average) of VEGF-C-mediated KDR activity, antibody 100 nM [5] [%] | % Inhibition (N = 1) of VEGF-C-mediated KDR activity, antibody 1 nM [5] [%] | % Inhibition (N = 1) of VEGF-C-mediated KDR activity, antibody 10 nM [5] [%] | % Inhibition (N = 1) of VEGF-C-mediated KDR activity, antibody 100 nM [5] [%] | % Inhibition (N = 2) of VEGF-C-mediated KDR activity, antibody 1 nM [5] [%] | % Inhibition (N = 2) of VEGF-C-mediated KDR activity, antibody 10 nM [5] [%] | % Inhibition (N = 2) of VEGF-C-mediated KDR activity, antibody 100 nM [5] [%] | Binder | further results
9 | 32 | 69 | 79 | 29 | 75 | 83 | 36 | 64 | 75 | 33E1 (antibody, V domains shown) VH: QVQLQESGPGLVKPSQTLSLTCTVSGGSISSGDHYWSWIRQHPGKGLEWIGHIYYSGSTDYNPSLKSRVTISVDTSKNHFSLKLNSVTAADTAVYYCARTNSSSWSDWYFDLWGRGTLVTVSS VL: DIVMTQSPDSLAVSLGERATINCKSSQSILYSSNNKNYLAWYQRKPGQPPILLIHWASTRESGVPDRFSGSGSRTDFTLTISSLQAEDVAVYYCQQYFITPWTFGQGTKVEIK | –
10 | 49 | 62 | 68 | 45 | 61 | 64 | 53 | 62 | 73 | 33B1 (antibody, V domains shown) VH: EVQLVESGGGLVKPGGSLRLSCAASGFTFSSYTMNWVRQAPGKGLEWVSFIDSRSSYIYYADSVKGRFTISRDNAKNSLYLQMNSLRAEDTAVYYCSKDDWFEELWGQGTLVTVSS VL: DIQMTQSPSSLSASVGDRVTITCRASQGIRNDLGWYQQKPGKAPKRLIYATSSLQSGVPSRFSGSGSGTEFTLTISSLQPEDFATYYCLHHNSFPWTFGQGTKVEIK | –
